Measurements reported in patent US20210070829A1 (ZHEJIANG DOER BIOLOGICS, published 2021).

Columns and labels:
Glucagon receptor = assay: cell-based or functional assay
human GLP-1 receptor = human GLP-1 receptor (human, UniProt P43220 24-463); assay: cell-based or functional assay

B1: C627L13F10 (Fc fusion)
chain: HSQGTFTSDYSKQMDSQRAQDFVQWLMNGGPSSGAPPPSGGGGAGGGGAGGGGAAESKYGPPCPPCPAPEAAGGPSVFLFPPKPKDTLMISRTPEVTCVVVDVSQEDPEVQFNWYVDGVEVHNAKTKPREEQFASTYRVVSVLTVLHQDWLNGKEYKCKVSNKGLPSSIEKTISKAKGQPREPQVYTLPPSQEEMTKNQVSLTCLVKGFYPSDIAVEWESNGQPENNYKTTPPVLDSDGSFFLYSRLTVDKSRWQEGNVFSCSVMHEALHNHYTQKSLSLSLG
GCGR agonist activity EC50 (luciferase reporter) (Glucagon receptor): 1.27 nM | GLP-1R agonist activity EC50 (luciferase reporter) (human GLP-1 receptor): 1.41 nM
